One assay concerns Fzd-1 and -2. Nature of the assay: Binding of rhodamine-labeled UM206 to frozen sections of mouse kidney and small intestine and its blocking. The note with it: UM206-rhodamine 1.10^−8 M; UM207 1.10^−7 M, Wnt3a 1.10^−8 M. As for the experimental part: Specificity of the binding site was confirmed by prior incubation of the tissue sections with UM207 (1.10^−7 M) or recombinant Wnt3a (1.10^−8 M).
One-half of the hearts of the mice was embedded in paraffin and cut in 4 μm sections. The paraffin sections were rehydrated and washed in PBS. One section was stained with AZAN, allowing an accurate determination of the infarct size. To visualize the myofibroblasts in the infarct area, the sections were incubated with an antibody directed against α-smooth muscle actin (Sigma-Aldrich), followed by incubation with the peroxidase-conjugated secondary antibody (Vector laboratories). Nuclei were visualized by hematoxylin. Photos were taken with a Leica (CTR500, 63×/0.85) camera and analyzed with the Quantimet program (QWin/QGo). An examiner blinded to the groups of the animals obtained all measurements. For the experiments with Rhodamine-labeled UM206, frozen sections (4 μm) of mouse kidney and small intestine were used.

For a further assay, the system named is canonical Wnt signaling. Nature of the assay: Activity assay (Example 1): TOPflash luciferase reporter in HEK (HEK293-superTOPflash) cells, receptor not specified. The note with it: no Fzd transfection. The format is cell-based, human. On the technique in general: In a reporter assay the amount or activity of a reporter protein is the signal.
A further assay concerns the target T1, frizzled-2 (rFzd-2) (Rattus norvegicus, UniProt Q08464).
T1 construct: expressed in transfected cells; host or cells: HEK293 superTOPflash (transient, Fugene6, pcDNA3.1/hygro)
The assay can be described thus: Activity assay: luciferase reporter in HEK superTOPflash cells transfected with frizzled-2. The note with it: FIG. 3. It is filed as cell-based. Here is the method: Human embryonic kidney (HEK) cells were used for screening. These cells have a luciferase construct stably transfected into the genome (see FIG. 2A), such that when the frizzled receptor is activated and β-catenin is increased, the luciferase is activated by transcription and light can be measured.
The peptides were tested by transfecting the frizzled-1 or the frizzled-2 receptor and addition of UM206(S-S) to the cell culture. For testing antagonistic activity, UM206 was added and the natural ligand Wnt3a was added, which is a natural stimulus for the canonical pathway.
Day 2: Transfection 12-Well Plates • heat Fugene6 and DNA 15 minutes at RT • 2 ml serum-free medium in tube • add 3 μl fugene • add 2 μg DNA • incubate 30 minutes at RT • wash with PBS • add 50 μl transfectiemix • add 1 ml antibiotica-free medium
Day 3: Add Conditioned Medium or UM206
Day 4: Luciferase Activity Measurements • remove medium • wash with PBS • add 500 μl ⅕ lysisbuffer • shake for 60 minutes • centrifuge in tube • 20 μl lysaat and 50 μl luciferase in new tube for measurement • vortex • measure
Three areas of high homology that contained two cysteines are underlined (UM207), (UM208) and (UM206). In FIGS. 9B through 9D, the inhibitory effect of these three peptides on Wnt3a-induced luciferase activity in HEK293-superTOPflash is shown. […]

T1 sequence (Q08464 29-570): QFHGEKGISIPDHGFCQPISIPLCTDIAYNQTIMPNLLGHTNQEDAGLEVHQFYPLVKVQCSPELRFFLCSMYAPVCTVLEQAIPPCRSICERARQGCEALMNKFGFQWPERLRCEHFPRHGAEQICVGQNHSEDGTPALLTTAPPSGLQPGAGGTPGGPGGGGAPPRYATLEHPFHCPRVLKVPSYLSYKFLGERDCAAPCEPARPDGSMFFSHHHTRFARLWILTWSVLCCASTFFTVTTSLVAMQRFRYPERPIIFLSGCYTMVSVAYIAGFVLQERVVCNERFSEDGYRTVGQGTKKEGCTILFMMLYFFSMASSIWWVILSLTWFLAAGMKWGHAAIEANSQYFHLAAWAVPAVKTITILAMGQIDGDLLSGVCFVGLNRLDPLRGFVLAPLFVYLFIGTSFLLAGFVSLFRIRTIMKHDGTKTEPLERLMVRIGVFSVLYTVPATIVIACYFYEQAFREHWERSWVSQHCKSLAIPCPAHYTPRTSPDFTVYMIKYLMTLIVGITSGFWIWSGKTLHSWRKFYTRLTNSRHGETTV

B1: Wnt3a: natural ligand of frizzled, natural stimulus for the canonical pathway; recombinant or conditioned medium (protein)
chain: SYPIWWSLAVGPQYSSLGSQPILCASIPGLVPKQLRFCRNYVEIMPSVAEGIKIGIQECQHQFRGRRWNCTTVHDSLAIFGPVLDKATRESAFVHAIASAGVAFAVTRSCAEGTAAICGCSSRHQGSPGKGWKWGGCSEDIEFGGMVSREFADARENRPDARSAMNRHNNEAGRQAIASHMHLKCKCHGLSGSCEVKTCWWSQPDFRAIGDFLKDKYDSASEMVVEKHRESRGWVETLRPRYTYFKVPTERDLVYYEASPNFCEPNPETGSFGTRDRTCNVSSHGIDGCDLLCCGRGHNARAERRREKCRCVFHWCCYVSCQECTRVYDVHTCK
For B1, the “blocking of UM206-rhodamine binding by prior incubation” value in the assay on Fzd-1 and -2 was “completely abolished the binding of UM206-rhodamine”. In addition, the “increase of luciferase activity” value in the assay on canonical Wnt signaling was roughly 450 fold. In the assay with frizzled-2 (rFzd-2), the “concentration-dependent increase of the luciferase activity, in combination with frizzled-2” value is listed as “twelve-fold”.

The record behind these values is patent US20150071856A1, “ANTAGONISTIC PEPTIDES FOR FRIZZLED-1 AND FRIZZLED-2” (Universiteit Maastricht, priority 2013, published 2015).
